The values below come from patent US20220332804A1 (CSL INNOVATION, published 2022).

Positions count from the first letter of the chain named.

Assay in all cases: SPR, antibody captured, C2 as analyte;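 also: biacore at 37 °C, anti-C2 mAbs held by immobilised goat anti-human IgG, C2 alanine or serine mutants injected, double-referenced sensorgrams fitted to a 1:1 kinetic or steady-state model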
The target of test [1] is T1, human C2 S469A (human, UniProt P06681 21-752).
T1 sequence: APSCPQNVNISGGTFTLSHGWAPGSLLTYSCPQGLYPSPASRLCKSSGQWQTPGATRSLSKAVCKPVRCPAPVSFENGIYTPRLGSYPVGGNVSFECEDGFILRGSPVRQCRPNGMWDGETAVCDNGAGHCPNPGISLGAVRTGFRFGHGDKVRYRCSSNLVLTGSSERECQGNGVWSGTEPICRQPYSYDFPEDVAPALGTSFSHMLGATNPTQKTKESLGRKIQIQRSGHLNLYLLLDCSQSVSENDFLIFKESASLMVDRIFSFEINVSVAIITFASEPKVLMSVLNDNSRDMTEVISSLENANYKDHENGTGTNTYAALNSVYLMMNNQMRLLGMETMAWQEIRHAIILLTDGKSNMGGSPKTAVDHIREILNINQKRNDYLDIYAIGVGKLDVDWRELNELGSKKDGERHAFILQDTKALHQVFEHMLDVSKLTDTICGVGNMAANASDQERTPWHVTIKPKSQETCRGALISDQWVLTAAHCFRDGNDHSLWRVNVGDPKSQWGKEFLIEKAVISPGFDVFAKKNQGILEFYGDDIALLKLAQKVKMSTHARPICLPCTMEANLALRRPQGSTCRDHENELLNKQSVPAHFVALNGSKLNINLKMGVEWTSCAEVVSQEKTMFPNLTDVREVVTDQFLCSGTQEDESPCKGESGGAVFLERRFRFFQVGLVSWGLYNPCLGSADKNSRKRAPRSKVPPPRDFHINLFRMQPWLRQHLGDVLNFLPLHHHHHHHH

In test [2] the target is T2, human C2 L620A (human, UniProt P06681 21-752).
T2 sequence: T1 sequence with A449S, L600A

The target of test [3] is T3, human C2 R434A (human, UniProt P06681 21-752).
T3 sequence: T1 sequence with R414A, A449S

The target of test [4] is T4, human C2 N380A (human, UniProt P06681 21-752).
T4 sequence: T1 sequence with N360A, A449S

B1: RF16-242 (antibody, human IgG4 S228P, lambda, V domains shown)
VH: EVQLLQSGAEVKKPGESLKISCKGSGYSFTSYWIGWVRQMPGKGLEWMGIIYPGDSDTRYSPSFQGQVTISADKSISTAYLQWSSLKASDTAMYYCARRGHYGDYFDYWGQGTLVTVSS
VL: SYELTQPPSVSVSPGQTARITCSGDALPKKYAYWYHQKSGQAPVLVIYEDRRRPSEIPERFSGSSSGTMATLTITGAQVEDEGVYFCYSRDRAGNQRVFGGGTQLTVLG
notes: pH-dependent anti-C2 antibody from a phage display library
As to B1, the Kd is 21.4 nM in test [1], 8 nM in test [2], 98.9 nM in test [3] and 10.2 nM in test [4].
